What is called Kd is the free concentration of one partner at which half of the binding sites on the other are occupied at equilibrium, for simple one-to-one binding.

Data set [1] concerns the target T1, PUM1 PUF domain (Homo sapiens, UniProt Q14671 828-1176). Nature of the data set: EMSA; 10 mM HEPES pH 7.3, 50 mM NaCl, 2 mM DTT, 0.05% Tween 20, 0.1 mg/mL BSA, 0.1 mg/mL tRNA; on ice; 10 nM RNA, 0-1 uM protein. Particulars: tags: GST cleaved (HRV3C); label: 32P. (In general: In EMSA bound probe runs differently from free probe, usually more slowly.)
The target in data set [2] is Pumilio-1 PUF domain wild type (human, UniProt Q14671 828-1168). Put plainly: EMSA; 10 mM HEPES pH 7.3, 50 mM NaCl, 2 mM DTT, 0.05% Tween 20, 0.1 mg/ml BSA, 0.1 mg/ml yeast tRNA; ~10 nM RNA, 0-1 uM protein, 1 h on ice; 1.2% agarose gel, 1x TBE, room temperature. The settings on record: protein: recombinant; tags: N-terminal GST (pGEX-6P-1) removed by HRV3C protease; label: 5' 32P.
Pumilio-1 PUF domain wild type, sequence (Q14671 828-1168): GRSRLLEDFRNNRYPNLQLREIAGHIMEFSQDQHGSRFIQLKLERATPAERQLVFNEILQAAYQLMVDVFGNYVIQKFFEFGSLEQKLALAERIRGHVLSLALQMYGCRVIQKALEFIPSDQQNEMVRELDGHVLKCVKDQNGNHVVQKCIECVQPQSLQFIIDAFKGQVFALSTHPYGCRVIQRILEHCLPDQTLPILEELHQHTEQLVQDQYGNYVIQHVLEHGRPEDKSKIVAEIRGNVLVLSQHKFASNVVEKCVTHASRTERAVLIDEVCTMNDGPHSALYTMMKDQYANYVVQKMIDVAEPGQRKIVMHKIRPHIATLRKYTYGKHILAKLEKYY

For data set [3], the target named is T1, PUM1 PUF domain. Nature of the data set: EMSA; 10 mM HEPES pH 7.3, 50 mM NaCl, 2 mM DTT, 0.05% Tween 20, 0.1 mg/mL BSA, 0.1 mg/mL tRNA; on ice; 10 nM RNA, 0-1 uM protein. Particulars: tags: GST cleaved (HRV3C); label: 32P. The source holds these as a separate data set.
The target of data set [4] is PUM1 PUF domain R1-QFR R2-VFQ (Homo sapiens, UniProt Q14671 828-1176, S863Q;R864F;Q867R;N899V;Y900F). The data set is described as above. Particulars: tags: GST cleaved (HRV3C); label: 32P.
PUM1 PUF domain R1-QFR R2-VFQ, sequence (Q14671 828-1176 S863Q/R864F/Q867R/N899V/Y900F): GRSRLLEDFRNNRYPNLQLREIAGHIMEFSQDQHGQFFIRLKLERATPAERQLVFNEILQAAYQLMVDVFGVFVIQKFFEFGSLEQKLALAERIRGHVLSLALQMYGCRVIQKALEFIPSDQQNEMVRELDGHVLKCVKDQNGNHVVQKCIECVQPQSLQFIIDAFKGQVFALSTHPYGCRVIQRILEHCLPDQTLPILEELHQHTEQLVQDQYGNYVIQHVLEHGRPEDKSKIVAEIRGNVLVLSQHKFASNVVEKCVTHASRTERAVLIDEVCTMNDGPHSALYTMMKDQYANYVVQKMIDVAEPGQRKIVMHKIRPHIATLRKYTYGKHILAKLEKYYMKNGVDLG
Data set [5] concerns the target T2, PUM1 PUF domain R3-THE R4-TFR (Homo sapiens, UniProt Q14671 828-1176, C935T;R936H;Q939E;N971T;H972F;Q975R). The description is as above. The settings on record: tags: GST cleaved (HRV3C); label: 32P.
The target of data set [6] is T2, PUM1 PUF domain R3-THE R4-TFR. Put plainly: yeast three-hybrid, YBZ-1, SC-Leu-His + 0.5 mM 3-AT, 4 days. Particulars: tags: N-Gal4 AD-HA kept; label: inside an RPR1-promoter hybrid RNA with tandem MS2 sites. The method in brief: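 Matching RNA elements and Pumilio-1 PUF domain libraries, randomized at the three base-contacting residues of every repeat, were co-expressed from a centromeric plasmid in strain YBZ-1 (LexA–MS2 coat fusion, HIS3 reporter). The repeat regions were PCR-amplified and Illumina-sequenced from cells grown four days on SC-Leu (input) or SC-Leu-His + 0.5 mM 3-AT (selection). The interaction score is the log change in variant frequency from input to selection. It is computed in log2, with a pseudocount of 1 for absent variants.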

Where only a bound is given, the exact number is not on record here.

T1 sequence (Q14671 828-1176): as the sequence (Q14671 828-1176 S863Q/R864F/Q867R/N899V/Y900F) above, with Q36S, F37R, R40Q, V72N, F73Y counted along it
T2 sequence (Q14671 828-1176 C935T/R936H/Q939E/N971T/H972F/Q975R): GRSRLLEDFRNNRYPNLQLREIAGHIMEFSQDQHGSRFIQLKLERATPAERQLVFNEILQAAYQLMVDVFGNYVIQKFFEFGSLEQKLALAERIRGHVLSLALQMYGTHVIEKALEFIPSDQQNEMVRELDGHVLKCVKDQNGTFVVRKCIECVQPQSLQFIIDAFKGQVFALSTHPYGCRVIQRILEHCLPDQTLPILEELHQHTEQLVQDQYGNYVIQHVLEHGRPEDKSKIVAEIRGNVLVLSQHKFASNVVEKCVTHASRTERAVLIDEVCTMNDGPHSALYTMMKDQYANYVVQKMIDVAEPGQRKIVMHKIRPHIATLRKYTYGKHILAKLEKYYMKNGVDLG

GGUAAGUGUACGUAGUCUGCAU (ssRNA): the qualitative with PUM1 PUF domain [1] is over 1000 nM.

Turning to GGUAAGUGUAAAACGUCUGCAU (ssRNA) [UGUAAAAC], the qualitative with PUM1 PUF domain [1] was over 1000 nM.

For GGUAAGUGUAAAUAGUCUGCAU (ssRNA) [wild-type NRE RNA], in data set [2], the Kd was about 80 nM.

Consider GGUAAGUGUAAAACGUCUGCAU (ssRNA) [QFR/VFQ target RNA], for which the binding result in data set [2] is reported as “no binding”.

Take GGUAAGUGUAAAUAGUCUGCAU (ssRNA) [UGUAAAUA]: in the data set with PUM1 PUF domain [3], the Kd was about 80 nM. Moreover, the qualitative in data set [4] and in data set [5] was over 1000 nM each time.

B1: UGUACGUA (ssRNA)
RNA: GGCUAGAACUAGUGGAUCCCCCGGCGCCCGGCGGCUCGAGCCCGGGUAAGUGUACGUAGUCUGCAUGCCGCCGGGCGCCAUGCCUGCAGGUCGACUCUAGAAAACAUG
Turning to B1, the binding signal in data set [6] was 6.65 log2 enrichment (interaction score).

Source of the values: article PMC8384837, “Expanding the binding specificity for RNA recognition by a PUF domain”.
